Tests used:
[1] = target: T1, Bacillus anthracis protective antigen (PA) (Bacillus anthracis, UniProt P13423 30-764); experiment: SPR (BIACore 3000), PA on CM5 chip
[2] = target: T1, Bacillus anthracis protective antigen …; experiment: SPR, purified scAb on immobilized PA ('Affinity Measurements of Purified scAb')
[3] = target: T1, Bacillus anthracis protective antigen …; experiment: SPR (BIACore 3000)
[4] = target: T1, Bacillus anthracis protective antigen …; experiment: SPR (BIACore 3000), PA on CM5 chip, scAb in solution
[5] = target: T1, Bacillus anthracis protective antigen …

T1 sequence (P13423 30-764 limits assumed): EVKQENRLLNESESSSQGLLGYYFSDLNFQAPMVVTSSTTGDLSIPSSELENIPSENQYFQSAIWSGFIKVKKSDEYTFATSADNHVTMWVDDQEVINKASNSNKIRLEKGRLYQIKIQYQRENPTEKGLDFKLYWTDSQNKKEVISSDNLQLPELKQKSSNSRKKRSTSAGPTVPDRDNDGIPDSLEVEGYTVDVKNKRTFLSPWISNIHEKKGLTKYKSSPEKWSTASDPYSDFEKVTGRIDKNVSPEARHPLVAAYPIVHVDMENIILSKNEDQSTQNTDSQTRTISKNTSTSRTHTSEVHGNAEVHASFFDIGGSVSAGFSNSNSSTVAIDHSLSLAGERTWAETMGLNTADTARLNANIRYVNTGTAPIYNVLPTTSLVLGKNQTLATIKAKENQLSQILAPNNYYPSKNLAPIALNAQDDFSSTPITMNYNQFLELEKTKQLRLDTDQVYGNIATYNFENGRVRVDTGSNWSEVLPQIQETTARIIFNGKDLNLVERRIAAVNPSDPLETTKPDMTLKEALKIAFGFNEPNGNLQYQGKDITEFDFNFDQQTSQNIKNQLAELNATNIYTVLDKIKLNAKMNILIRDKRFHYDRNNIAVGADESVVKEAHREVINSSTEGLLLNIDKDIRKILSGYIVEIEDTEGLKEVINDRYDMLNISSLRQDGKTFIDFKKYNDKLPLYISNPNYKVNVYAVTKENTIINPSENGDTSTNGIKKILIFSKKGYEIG

B1: 14B7 scAb (scFv)
chain: DIQMTQTTSSLSASLGDRVTISCRASQDIRNYLNWYQQKPDGTVKLLIYYTSRLQSGVPSRFSGSGSGTDYSLTISNQEQEDIGTYFCQQGNTLPWTFGGGTKLEIKRGGGGSGGGGSGGGGSGGGGSEVQLQQSGPELVKPGASVKISCKDSGYAFSSSWMNWVKQRPGQGLEWIGRIYPGDGDTNYNGKFKGKATLTADKSSSTAYMQLSSLTSVDSAVYFCARSGLLRYAMDYWGQGTSVTVSS
Work on B1 yielded a Kd [1] of 4.3 nM, a koff [2] of 0.003 s⁻¹ and a kon [2] of 710000 M⁻¹ s⁻¹.

B2: M18 scAb (scFv)
chain: DIQMTQTTSSLSASLGDRVTVSCRASQDIRNYLNWYQQKPDGTVKFLIYYTSRLQPGVPSRFSGSGSGTDYSLTINNLEQEDIGTYFCQQGNTPPWTFGGGTKLEIKRGGGGSDGGGSGGGGSGGGGSEVQLQQSGPELVKPGASVKISCKDSGYAFNSSWMNWVKQRPGQGLEWIGRIYPGDGDSNYNGKFEGKAILTADKSSSTAYMQLSSLTSVDSAVYFCARSGLLRYAMDYWGQGTSVTVSS
For B2, the “fold affinity improvement compared to the parental antibody 14B7” value [3] was > 120 fold, the Kd [4] was 0.035 nM and the koff [4] was 4.2e-05 s⁻¹. The kon [2] was 1.2e+06 M⁻¹ s⁻¹.

B3: NlpA-[14B7 scFv] (scFv)
scFv: CDQSSSDIQMTQTTSSLSASLGDRVTISCRASQDIRNYLNWYQQKPDGTVKLLIYYTSRLQSGVPSRFSGSGSGTDYSLTISNQEQEDIGTYFCQQGNTLPWTFGGGTKLEIKRGGGGSGGGGSGGGGSGGGGSEVQLQQSGPELVKPGASVKISCKDSGYAFSSSWMNWVKQRPGQGLEWIGRIYPGDGDTNYNGKFKGKATLTADKSSSTAYMQLSSLTSVDSAVYFCARSGLLRYAMDYWGQGTSVTVSS
B3 was tested, and the “fold higher mean fluorescence intensity compared to controls” value [5] was ~9 fold.

Reference: patent US20060029947A1 (University of Texas, published 2006)
